The values that follow come from patent US20240002495A1 (MITSUBISHI TANABE PHARMA, published 2024).

Assay [1] has as its target T1, recombinant human IL-33 protein (residues 112 to 270) (ILC0701, ATGen Co. Ltd) (human, UniProt O95760 112-270).
T1 construct: bought protein
T1 sequence: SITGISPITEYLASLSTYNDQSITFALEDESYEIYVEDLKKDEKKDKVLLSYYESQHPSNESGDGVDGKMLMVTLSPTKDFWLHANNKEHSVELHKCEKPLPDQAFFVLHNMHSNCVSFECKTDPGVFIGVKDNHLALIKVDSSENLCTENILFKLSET
Kind of assay: SPR (Biacore T200), human IL-33 (ILC0701) immobilized on CM5, Calibration Free Concentration Analysis of the preserved antibody against a control-preserved sample. On the procedure: Each alkaline-purified antibody was dissolved in a citrate buffer (50 mM citric acid; 150 mM NaCl (pH: 6.3)) at a concentration of about 10 mg/mL, and was preserved at a temperature of 40° C. for four weeks, to evaluate the preservation stability of each test antibody (IgG). For evaluation of the monomer purity of each antibody after the preservation, monomer purity was measured by size exclusion chromatography analysis (SEC) and microchip capillary SDS electrophoresis (mCE-SDS), and antigen-binding activity was measured by surface plasmon resonance.
In order to confirm the presence of the antigen-binding ability after the preservation, the antigen-binding activity was measured with a surface plasmon resonance system, Biacore T200 (available from GE Healthcare). A human IL-33 protein (ILC0701, available from ATGen Co. Ltd) was immobilized onto a Sensor Chip CM5 (GE Healthcare) (the amount of immobilized protein was about 3000 to 6000 RU) with Amine Coupling Kit (GE Healthcare). Each preserved antibody solution was then diluted to 10-fold with a citric buffer (50 mM citric acid, 150 mM NaCl (pH: 6.3)), and the resulting solution was analyzed to measure the total protein concentration in the solution, using a microvolume spectrophotometer, Astragene II (Astranet Systems, Ltd.) (protein concentration: about 1 mg/mL). The antibody solution after the measurement of the total protein concentration was diluted to 1000-fold with HBS-EP buffer (10 mM HEPES, 150 mM NaCl, 3 mM EDTA, 0.05% (v/v) Surfactant P20 (at pH of 7.4)). The analyte was thereby prepared. The measurement temperature was 25° C. Each analyte was added for 36 seconds at two flow rates of 5 μL/min and 100 μL/min to obtain sensorgrams of the association phase. The sensorgrams were then analyzed by Calibration Free Concentration Analysis using a data analysis program (GE Healthcare, Biacore T200 Evaluation Software v1.0) to determine the concentration of the antibody having antigen-binding activity. As control, each test antibody after preservation at a temperature of 4° C. for four weeks was also analyzed to confirm the antigen-binding activity, to calculate the ratio of antigen-binding activity of each test antibody after the preservation at a temperature of 40° C. for four weeks.
Background: SPR reads the build-up and loss of mass on a sensor chip optically.

Assay [2] has as its target T2, full-length human IL-33 protein (human, UniProt O95760 1-270).
T2 construct: also called Human IL-33 (Full-Length)
T2 sequence: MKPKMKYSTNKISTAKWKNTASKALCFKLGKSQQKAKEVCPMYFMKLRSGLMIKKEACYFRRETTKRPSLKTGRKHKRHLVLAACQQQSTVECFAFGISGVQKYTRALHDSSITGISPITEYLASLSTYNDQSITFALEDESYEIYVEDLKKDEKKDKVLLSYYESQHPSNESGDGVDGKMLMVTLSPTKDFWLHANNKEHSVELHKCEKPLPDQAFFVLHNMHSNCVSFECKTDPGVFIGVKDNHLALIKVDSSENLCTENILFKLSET
Kind of assay: KinExA in PBS, alkaline-purified IgG. On the procedure:
(§1) Mixture samples of a test antibody and a human IL-33 protein (ILC0701, available from ATGen Co. Ltd) were prepared. The human IL-33 protein was titrated to a constant concentration of test antibody (final concentration: several tens of pM to several hundreds of pM) over a wide concentration range of the human IL-33 protein (so that it covered the concentrations of the human IL-33 protein resulting from 12-step serial doubling dilutions, i.e. one- to 2048-fold, with the upper limit of final concentration set to several nM to several tens of nM). The mixture samples were incubated at a room temperature until the antigen-antibody reaction reached equilibrium. After the reaction reached equilibrium, the percentage of free anti-IL-33 antibody in each sample was analyzed using KinExA3200. The values of Kd were calculated by fitting the plot of percentages of anti-IL-33 antibody not bound to the human IL-33 protein (vertical axis) and concentrations of antigen (horizontal axis) to a theoretical formula, using a KinExA data analysis program (KinExA Pro Software v3.5.3, available from Sapidyne Instruments, Inc.). Beads for capturing the anti-IL-33 antibody were prepared by suspending 50 mg of Azlactone beads (Sapidyne) in 1 mL of coating solution (10 μg/mL human IL-33 protein (ILC0701, available from ATGen Co. Ltd), 50 mM sodium carbonate at pH of 9.6) and incubating the solution at a room temperature for one hour. The antibody for detection used was anti-human F(ab)′2-DyLight649 (Jackson, 309-495-006).
For orientation: A kinetic exclusion assay measures how much of one partner remains free in solution.

Assay [3] deals with T1, recombinant human IL-33 protein …. The experiment in a line: KinExA in PBS, alkaline-purified IgG. As to the method:
as §1

B1: A10-1C04 (IgG) (antibody, V domains shown)
VH: EVQLLESGGGLVQPGGSLRLSCAASGFTFSDYYMNWVRQAPGKGLEWVSSISRYSSYIYYADSVKGRFTISRDNSKNTLYLQMNSLRAEDTAVYYCARDIGGMDVWGQGTLVTVSS
VL: QSVLTQPPSASGTPGQRVTISCTGSSSNIGAVYDVHWYQQLPGTAPKLLIYRNNQRPSGVPDRFSGSKSGTSASLAISGLRSEDEADYYCQTYDSSRWVFGGGTKLTVL
notes: tested as neutral-purified and as alkaline-purified antibody; also called V1; IGN1
As a reminder, the Kd is the concentration at which binding is half-saturated. Consider B1, for which the “% Active IgG (antigen binding activity after preservation at 40 C for 4 W)” value in assay [1] worked out at 99.3%. Also, the Kd in assay [2] worked out at 0.18 nM; in assay [3] it was 0.1 nM.
